The source of these data is patent US20250090677A1 (MULTITUDE THERAPEUTICS, published 2025).

Assay [1] has as its target T1, CDH6 on the cell surface of OVCAR-3 cells (human ovarian cancer cells) (human, UniProt P55285 54-790).
T1 construct: whole, on cells; also called CDH6-positive human ovarian cancer cell line OVCAR-3
T1 sequence (looked up): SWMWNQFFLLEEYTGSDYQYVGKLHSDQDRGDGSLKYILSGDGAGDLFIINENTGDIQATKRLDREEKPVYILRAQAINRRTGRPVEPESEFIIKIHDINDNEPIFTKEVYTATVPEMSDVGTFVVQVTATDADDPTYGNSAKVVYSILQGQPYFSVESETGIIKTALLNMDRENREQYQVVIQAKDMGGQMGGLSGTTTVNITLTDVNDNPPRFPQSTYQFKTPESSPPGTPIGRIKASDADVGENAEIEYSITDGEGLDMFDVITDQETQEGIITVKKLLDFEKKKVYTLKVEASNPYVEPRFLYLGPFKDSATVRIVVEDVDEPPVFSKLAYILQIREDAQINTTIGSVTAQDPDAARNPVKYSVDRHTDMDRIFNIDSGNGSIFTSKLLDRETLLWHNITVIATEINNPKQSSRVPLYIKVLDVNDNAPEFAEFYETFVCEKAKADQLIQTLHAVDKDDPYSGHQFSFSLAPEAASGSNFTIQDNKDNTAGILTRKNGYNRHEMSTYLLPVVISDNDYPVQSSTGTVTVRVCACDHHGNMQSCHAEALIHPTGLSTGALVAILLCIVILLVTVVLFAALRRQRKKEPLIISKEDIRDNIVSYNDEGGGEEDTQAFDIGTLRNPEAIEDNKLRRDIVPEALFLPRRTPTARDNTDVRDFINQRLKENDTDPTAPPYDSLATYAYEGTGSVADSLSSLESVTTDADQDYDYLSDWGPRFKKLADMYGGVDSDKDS
Description: flow cytometry (FACS) on OVCAR-3 cells, antibody titration, labelled secondary antibody, MFI.

A further assay addresses T2, Human CDH6-ECD-His (human, UniProt P55285 54-615).
T2 construct: extracellular domain; Bought protein; also called human CDH6-ECD-His recombinant protein; Human CDH6-EC6D-His; not shown: His tag
T2 sequence (looked up): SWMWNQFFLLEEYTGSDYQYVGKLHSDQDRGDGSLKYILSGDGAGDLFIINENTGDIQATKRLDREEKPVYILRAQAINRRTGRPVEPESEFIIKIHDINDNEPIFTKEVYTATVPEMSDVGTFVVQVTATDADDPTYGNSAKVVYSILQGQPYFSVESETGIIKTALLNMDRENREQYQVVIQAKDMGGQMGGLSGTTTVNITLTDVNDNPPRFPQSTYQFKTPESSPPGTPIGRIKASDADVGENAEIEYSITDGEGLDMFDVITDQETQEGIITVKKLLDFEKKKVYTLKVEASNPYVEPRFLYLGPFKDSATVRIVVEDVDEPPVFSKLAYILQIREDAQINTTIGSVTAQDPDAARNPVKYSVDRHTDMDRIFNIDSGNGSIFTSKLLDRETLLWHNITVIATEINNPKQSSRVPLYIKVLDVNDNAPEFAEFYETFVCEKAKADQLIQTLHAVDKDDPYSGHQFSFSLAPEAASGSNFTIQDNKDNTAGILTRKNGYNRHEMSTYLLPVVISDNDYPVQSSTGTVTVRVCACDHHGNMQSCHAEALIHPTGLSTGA
The assay can be described thus: BLI (Octet), antibody on AHC sensor, antigen 3.13-100 nM, 1:1 model. The protocol: (§1) Binding affinities of CL069707-H1L1 and Ch069707 were measured using the Octet® system based on Bio-Layer Interferometry (BLI) technique. Antibodies were loaded to AHC (Anti-hIgG Fc Capture) at 100 nM concentration. […] From the six different binding curves obtained from each antigen concentration, binding constants (KD) were calculated based on the 1:1 binding model. CL069707-H1L1 and Ch069707 binds to human CDH6-ECD-His antigen with similar affinity. CL069707-H1L1 binds to human CDH6-ECD-His and cyno monkey CDH6-ECD-His antigens with similar affinity.

Another assay deals with T3, cyno monkey CDH6-ECD-His (cyno monkey, UniProt A0A2K5TW62 54-615).
T3 construct: extracellular domain; Bought protein; also called Cyno CDH6-ECD-His; not shown: His tag
T3 sequence: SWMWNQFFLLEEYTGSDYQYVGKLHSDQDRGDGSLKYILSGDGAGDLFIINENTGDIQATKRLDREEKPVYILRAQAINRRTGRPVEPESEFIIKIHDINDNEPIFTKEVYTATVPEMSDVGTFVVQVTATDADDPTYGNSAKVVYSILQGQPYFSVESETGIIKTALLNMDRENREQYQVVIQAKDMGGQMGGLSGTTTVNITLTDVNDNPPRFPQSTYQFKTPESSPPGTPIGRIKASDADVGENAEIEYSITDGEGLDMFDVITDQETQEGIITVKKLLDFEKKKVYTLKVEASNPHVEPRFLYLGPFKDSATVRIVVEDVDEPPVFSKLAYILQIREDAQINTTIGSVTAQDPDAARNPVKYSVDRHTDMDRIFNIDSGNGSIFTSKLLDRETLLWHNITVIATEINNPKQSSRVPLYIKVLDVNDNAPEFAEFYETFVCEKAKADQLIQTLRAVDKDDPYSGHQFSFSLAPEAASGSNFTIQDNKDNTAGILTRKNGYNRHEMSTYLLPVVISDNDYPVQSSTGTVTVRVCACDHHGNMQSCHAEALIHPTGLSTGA
Described as above. The method, then: as §1

Assay [2] deals with T1, CDH6 on the cell surface of OVCAR-3 …. The assay can be described thus: flow cytometry (FACS) on OVCAR-3 cells, antibody titration, labelled secondary antibody, MFI. The method, then:
The binding EC50 of the humanized antibodies on tumor cell were tested as follow. Human ovarian cancer cell line OVCAR-3(purchased from National Collection of Authenticated Cell Cultures) cell culture was maintained in vitro as independent monolayer cultures at 37° C. in an atmosphere of 5% CO₂. The cells were harvested using trypsin-EDTA partial digestion followed by centrifugation at 1000 rpm for 5 minutes. The cell was resuspended in cold PBS and serial dilution of Ch069707 and CL069707-H1L1, CL069707-H1L2, CL069707-H2L1 and CL069707-H2L2 antibodies were added. Ch069707 antibody was a chimeric antibody. The variable regions were the same as those of CL069707, and the constant region was the same as human IgG1 constant regions (SEQ ID NO: 70 and SEQ ID NO: 71). The cell solutions were mixed, incubated at 4° C. and washed with cold PBS prior to addition of secondary antibody conjugates (for detection purposes). After incubation at 4° C., the cells were washed with PBS, and then subjected to flow cytometry (FACS) analysis.
This is another data set of the same source.

Where two headings read alike, the source gives them in different places.

B1: CL069463-H1L1 (antibody, human IgG1, kappa, V domains shown)
VH: EVQLVESGGGLVQPSGSLKLSCAASGFTFNTYALTWVRQASGKGLEWVGRIKSKNKDYETYYADSVKDRFTISRDDSISTLYLQMNSLKTEDTALYYCVRQNWNYFDYWGQGTMLTVSS
VL: DIQMTQSPSSLSASVGQRVTITCRASENIYYSLAWYQQKPGKPPRLLIYNANSLKDGVPSRFSGSGSGTQYTMTITSMQPEDFATYYCQQAYDVPPTFGGGTKLEIKR
notes: Humanized IgG1/kappa
As to B1, the “EC50 (read off the curve)” value in assay [1] is about 4 nM.

B2: CL069463-H2L2 (antibody, human IgG1, kappa)
heavy: not shown
light: DIQMTQSPSSLSASVGDRVTITCRASENIYYSLAWYQQKPGKAPKLLIYNANSLKDGVPSRFSGSGSGTDYTMTISSMQPEDFATYYCQQAYDVPPTFGGGTKVEIKRTVAAPSVFIFPPSDEQLKSGTASVVCLLNNFYPREAKVQWKVDNALQSGNSQESVTEQDSKDSTYSLSSTLTLSKADYEKHKVYACEVTHQGLSSPVTKSFNRGEC
notes: Humanized IgG1/kappa
Turning to B2, in assay [1], the half-maximal effective concentration (EC50 (read off the curve)) was about 4 nM.

B3: CL069463-H2L3 (antibody, human IgG1, kappa)
heavy: not shown
light: DIQMTQSPSSLSASVGERVTITCRASENIYYSLAWYQQKPGKAPKLLIYNANSLKDGVPSRFSGSGSGTDYTMTISSMQPEDFATYYCQQAYDVPPTFGGGTKVEIKRTVAAPSVFIFPPSDEQLKSGTASVVCLLNNFYPREAKVQWKVDNALQSGNSQESVTEQDSKDSTYSLSSTLTLSKADYEKHKVYACEVTHQGLSSPVTKSFNRGEC
notes: Humanized IgG1/kappa
On to B3, for which the “EC50 (read off the curve)” value in assay [1] is about 3 nM.

B4: Ch069707 (antibody, human IgG1, kappa, V domains shown)
VH: EVHLVESGGGLVQPKGSLKLSCVASGFTFTTYAMNWVRQAPGKGLEWVARIRIKNNNYATYYADSVTDRFTISRDDSQSMLYLQMNNLKTEDTAMYYCVRPDYGNYGLAYWGQGTLVTVSA
VL: EIVLTQSPTTMAASPGEKITITCSASSSISSHYLHWYQQKPGFSPKLLIYRSFYLASGVPLRFTGSGSGTSYSLTIGTMEAEDVATYYCQQDIVPLTFGAGTKLELKR
notes: also called anti-CDH6 chimeric antibody Ch069707
As to B4, the Kd in the assay with Human CDH6-ECD-His was determined as 2.28 nM; with cyno monkey CDH6-ECD-His, 2.19 nM. Besides, in assay [2], the concentration giving a half-maximal response (EC50 (read off the curve)) was about 0.7 nM.
